US20160313325A1

Assays:
[1] = molecular target: gp41 of mutant "D-I-A" (pNL-Bal with Glycine to Aspartic Acid at position 36 and Valine to Alanine at position 38 of gp41) (HIV-1 clone BAL2 (subtype B, CCR5-tropic))
[2] = molecular target: gp41 of mutant "G-I-A" (pNL-Bal with Valine to Alanine at position 38 of gp41) (HIV-1 clone BAL2 (subtype B, CCR5-tropic))
[3] = molecular target: gp41 of pNL4-3 (HIV-1 pNL4-3 (subtype B, CXCR4-tropic))
[4] = molecular target: gp41 of mutant "G-I-A" (pNL-Bal with Valine to Alanine at position 38 of gp41) (HIV-1 clone BAL2 (subtype B, CCR5-tropic)); remark: listed apart in the source

## T20 (Enfuvirtide, Fuzeon) (peptide)
[1]
  IC50 (nM), inhibition of viral replication, deCIPhR: 2270 nM
  Rf (resistance factor, IC50 on mutant virus / IC50 on reference strain): 227 fold
[2]
  IC50 (nM), inhibition of viral replication, deCIPhR: 127 nM
  Rf (resistance factor, IC50 on mutant virus / IC50 on reference strain): 12.7 fold
[3]
  IC50 (nM), inhibition of viral replication, deCIPhR cell to cell infection: 76 nM
  IC50 (nM), inhibition of viral replication, virus to cell infection: 48 nM
[4]
  Resistance factor (IC50mut/IC50wt) IC50 fold increase: 13 fold
